Results on 17 molecules are retold here after PMC5650626, “Deletion of MtrA Inhibits Cellular Development of Streptomyces coelicolor and Alters Expression of Developmental Regulatory Genes”.

Data set [1] addresses T1, MtrA (MtrASCO) (Streptomyces coelicolor M145) (UniProt Q9KYW8).
T1 sequence: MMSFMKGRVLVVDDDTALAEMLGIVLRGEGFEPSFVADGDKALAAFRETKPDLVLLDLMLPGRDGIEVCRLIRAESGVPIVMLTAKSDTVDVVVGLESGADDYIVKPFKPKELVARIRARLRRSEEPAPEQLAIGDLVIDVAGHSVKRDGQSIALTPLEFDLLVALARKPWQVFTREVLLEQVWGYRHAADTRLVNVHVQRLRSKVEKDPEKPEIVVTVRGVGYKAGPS
The experiment in a line: EMSA. Particulars: EMSA: 20 mM Tris-HCl pH 8.0, 2 mM EDTA, 20 mM KCl, 0.5 mM DTT, 4% Ficoll-400, 2 ug poly(dI-dC), 50 fmol probe, 20 ul, room temperature 15 min; footprinting …. For orientation: In EMSA bound probe runs differently from free probe, usually more slowly.

Data set [2] addresses T2, MtrA (MtrASCO) (Streptomyces coelicolor M145, UniProt Q9KYW8 1-229).
T2 sequence: T1 sequence
Put plainly: EMSA; stronger than whiI-b; 2.1-6.3 ug MtrA; EMSA: 20 mM Tris-HCl pH 8.0, 2 mM EDTA, 20 mM KCl, 0.5 mM DTT, 4% Ficoll-400, 2 ug poly(dI-dC), 50 fmol probe, 20 ul, room temperature 15 min; footprinting 25 C, 30 min, 400 ng probe, 40 ul, poly(dI-dC). The conditions noted are these: protein: recombinant; tags: His-tag (pET28a NdeI/HindIII; native stop codon in primer); chain copies: 2; label: biotin-11-UTP 3' end; blunt.

Data set [3] addresses T2, MtrA (MtrASCO). The experiment in a line: EMSA; shift increases with MtrA; EMSA: 20 mM Tris-HCl pH 8.0, 2 mM EDTA, 20 mM KCl, 0.5 mM DTT, 4% Ficoll-400, 2 ug poly(dI-dC), 50 fmol probe, 20 ul, room temperature 15 min; footprinting 25 C, 30 min, 400 ng probe, 40 ul, poly(dI-dC). Particulars: protein: recombinant; tags: His-tag (pET28a NdeI/HindIII; native stop codon in primer); chain copies: 2; label: biotin-11-UTP 3' end; blunt.

The target of data set [4] is T2, MtrA (MtrASCO). The experiment in a line: EMSA; almost complete shift at 1.6 ug; EMSA: 20 mM Tris-HCl pH 8.0, 2 mM EDTA, 20 mM KCl, 0.5 mM DTT, 4% Ficoll-400, 2 ug poly(dI-dC), 50 fmol probe, 20 ul, room temperature 15 min; footprinting 25 C, 30 min, 400 ng probe, 40 ul, poly(dI-dC). The conditions noted are these: protein: recombinant; tags: His-tag (pET28a NdeI/HindIII; native stop codon in primer); chain copies: 2; label: biotin-11-UTP 3' end; blunt.

Data set [5] concerns the target T2, MtrA (MtrASCO). Put plainly: EMSA; lower affinity than whiI-a; 2.1-6.3 ug MtrA; EMSA: 20 mM Tris-HCl pH 8.0, 2 mM EDTA, 20 mM KCl, 0.5 mM DTT, 4% Ficoll-400, 2 ug poly(dI-dC), 50 fmol probe, 20 ul, room temperature 15 min; footprinting 25 C, 30 min, 400 ng probe, 40 ul, poly(dI-dC). The conditions noted are these: protein: recombinant; tags: His-tag (pET28a NdeI/HindIII; native stop codon in primer); chain copies: 2; label: biotin-11-UTP 3' end; blunt.

Data set [6] addresses T2, MtrA (MtrASCO). Put plainly: EMSA; complete shift at lowest amount (1.6 ug); EMSA: 20 mM Tris-HCl pH 8.0, 2 mM EDTA, 20 mM KCl, 0.5 mM DTT, 4% Ficoll-400, 2 ug poly(dI-dC), 50 fmol probe, 20 ul, room temperature 15 min; footprinting 25 C, 30 min, 400 ng probe, 40 ul, poly(dI-dC). Particulars: protein: recombinant; tags: His-tag (pET28a NdeI/HindIII; native stop codon in primer); chain copies: 2; label: biotin-11-UTP 3' end; blunt.

With “CGTCAGGGATGCGTCAGGAGTGCGTCAGGGGTCCGAGAGGGGTCCGACCGAGGTGCGCCGGGGCCTTCATGCATGCCCCGTACGGCCCGTCGGGGCCCGCCACGGCGCAGGCTTCACCCGCTTAACCCTCCTGGTTCGCGGTCCCCGCGGGCACGGCCCACGATCGTGCTTACGCGACCGTCGCACCCCGCCGGCCTGGCGGGCGCCGCCGACGATCGCCCCAGTCCACGAGGATGACCGGAGAAGAGGTGGGCCGGATGACGGTCT (double strand) [whiE-ORF1 upstream PCR probe (267 bp)]”, in data set [1], the binding result is given as “no binding”.

As for “GGACATATGGCTCCCCGGACAAGGTGTCGACGCGGCAGGCTGTGTTGTCGGCCGCGCGGCTGGTAACTCACTGTGAGGTTACGCAGCGTTACTCTGCTGCGTCAAGCCGAATGGTCCGCACCGACTCTTCCGTGGTATTCGCCATCCATTACTCCGTGCGGGTGATCGATGTGGGGCAGAGGAGTGACGGGGGAGTGTCAGGGGGGTCATCGGAGAGGTTCTGTGAGCCTGCTACCGTAGGTGGCGCATATCCGACGTCCTTTAAGGTCCGTCCCGTGAGGC (double strand) [bldD upstream PCR probe (282 bp)]”, in data set [1], the binding result is “binds”. In the case of “CACCAGCCGTCGTTCATCGTTCCGGGCAGGGGGTCCGCACGTCCGGAGGAGGTTCCGTCACTTTGTCGACACGGCCACTTTCGGCCTCGTATCGACAAAGTGCGGAACCGTTCGATCTTCGAATGATCGACAGTGTGTCCGAATTGCTCGGATTGTTACTCACCAGATCGTGATCATTCTCTAAAGGCGGACGCGTTCGGTGCCGAAGACGACTGTGACCTTGAAAGCACGGTTCGTCCCGGCTTAAACCCCATGAGCCGGCCCCGTCCCCGCACCCCAGGAGGCCTGGTGTC (double strand) [whiI upstream PCR probe (293 bp)]”, the binding entry in data set [1] is “binds”. The same measure, in the same setting: in the case of “GTCGTCCCCGATGGCAGGTGTAGGCCCCGCGGGTGCGTTCAGTGCCGTCACGGTTGATGCGGCAGCGGCCCGGCGTCGCGAACTTCCTTGACGTCGTGTGCCGTCGGCCGGCCGTCGCCGGCCGTGAGCCAGGGTTCTCCCGGGGCCGTGCTGCCCCTCCGTCTTTGTTCCCCTCGCGCGCTGCGAAAGACGTACGCCGTGCGAAGGCCGTCGGCTCCCGCACTCCCGACGACCTCCAACCTGTGAAATGGACGAATCATGACGA (double strand) [bldKA upstream PCR probe (265 bp)]” it was “no binding”.

B1: whiI-a 59bp WT (SCO6029-a) (dsDNA)
DNA 1: GATCTGGTGAGTAACAATCCGAGCAATTCGGACACACTGTCGATCATTCGAAGATCGAA
DNA 2: TTCGATCTTCGAATGATCGACAGTGTGTCCGAATTGCTCGGATTGTTACTCACCAGATC
As for B1, the binding result in data set [2] is listed as “binds”.

B2: SCO3863 59bp (dsDNA)
DNA 1: CGCCCGACTATACACACCGGCCGATACCGATCGGTGACCTGCGTCGGCGGTCAACTGCC
DNA 2: GGCAGTTGACCGCCGACGCAGGTCACCGATCGGTATCGGCCGGTGTGTATAGTCGGGCG
In the case of B2, the binding result in data set [3] was “binds”.

B3: SCO3485 59bp (dsDNA)
DNA 1: ATGCCCGTTGTCGACCAGGCGTGTCACCGTATGGTAAACCGGTTATCTGTGACGCGCGG
DNA 2: CCGCGCGTCACAGATAACCGGTTTACCATACGGTGACACGCCTGGTCGACAACGGGCAT
As to B3, the binding result in data set [4] is on record as “binds”.

B4: whiI-b 59bp WT (SCO6029-b) (dsDNA)
DNA 1: TCACAGTCGTCTTCGGCACCGAACGCGTCCGCCTTTAGAGAATGATCACGATCTGGTGA
DNA 2: TCACCAGATCGTGATCATTCTCTAAAGGCGGACGCGTTCGGTGCCGAAGACGACTGTGA
With B4, the binding result in data set [5] was “binds”.

B5: SCO1489 (bldD) 59bp WT (dsDNA)
DNA 1: TGACGCAGCAGAGTAACGCTGCGTAACCTCACAGTGAGTTACCAGCCGCGCGGCCGACA
DNA 2: TGTCGGCCGCGCGGCTGGTAACTCACTGTGAGGTTACGCAGCGTTACTCTGCTGCGTCA
For B5, the binding result in data set [6] is on record as “binds”.

B6: SCO7434 59bp (dsDNA)
DNA 1: ATACCGGTCCGGTGTGTCTGCGTGACGGAGCGGTTACGGACAGCATCATGAGCTCTGCA
DNA 2: TGCAGAGCTCATGATGCTGTCCGTAACCGCTCCGTCACGCAGACACACCGGACCGGTAT
With B6, in data set [3], the binding result is “binds”.

B7: SCO2210 59bp (dsDNA)
DNA 1: GCCGCGCCACAACGAGCCCGGGTAACACGGGGTTCACCTACGGGCAACGGTCGGGAAAT
DNA 2: ATTTCCCGACCGTTGCCCGTAGGTGAACCCCGTGTTACCCGGGCTCGTTGTGGCGCGGC
As to B7, the binding result in data set [3] is reported as “binds”.

B8: SCO2136 59bp (dsDNA)
DNA 1: TTCCGCCACAACTCACCTGCAGTGACGTCTTCCTGACACCACGTTGCGTGACGGTTCCG
DNA 2: CGGAACCGTCACGCAACGTGGTGTCAGGAAGACGTCACTGCAGGTGAGTTGTGGCGGAA
Take B8: in data set [3], the binding result is listed as “binds”.

B9: SCO3561 59bp (dsDNA)
DNA 1: AATTACTCTCTATTTACTCGCTGTAATCGAACGGATACTCAGGAGACGGGAACATGTCA
DNA 2: TGACATGTTCCCGTCTCCTGAGTATCCGTTCGATTACAGCGAGTAAATAGAGAGTAATT
With B9, in data set [3], the binding result is given as “binds”.

B10: SCO1189 59bp (dsDNA)
DNA 1: CTCCCGCCGACCTCACGTGCCGGTTACAAATCGCTCAACCTCTGGTTGCGAAGCGGTGA
DNA 2: TCACCGCTTCGCAACCAGAGGTTGAGCGATTTGTAACCGGCACGTGAGGTCGGCGGGAG
With B10, in data set [4], the binding result is reported as “binds”.

B11: SCO7458 59bp (dsDNA)
DNA 1: GGGCGACCGGTGGTCACCTGGTGTAACAGTCTTCTTATGATCTGTAGACGAAATGATCG
DNA 2: CGATCATTTCGTCTACAGATCATAAGAAGACTGTTACACCAGGTGACCACCGGTCGCCC
As to B11, the binding result in data set [3] is “binds”.

B12: SCO1568 59bp (dsDNA)
DNA 1: CTCTGGGTGTGCGTGACTCACCTCACGGGGCGGTCACGTTCCTGCGGGGCGGTGGTCTG
DNA 2: CAGACCACCGCCCCGCAGGAACGTGACCGCCCCGTGAGGTGAGTCACGCACACCCAGAG
In the case of B12, the binding result in data set [3] is “binds”.

B13: SCO5583 59bp (dsDNA)
DNA 1: ACGACGACCGGCCCCGGCCGTTCACCCACGCGTAACACGCACCGTGCCTTCGTCACGGC
DNA 2: GCCGTGACGAAGGCACGGTGCGTGTTACGCGTGGGTGAACGGCCGGGGCCGGTCGTCGT
B13: the binding result in data set [3] was “binds”.
